Reference: article PMC9054013, “FCHO controls AP2’s initiating role in endocytosis through a PtdIns(4,5)P2-dependent switch” (Science Advances, 2022)
Several values for one entry are separate records, joined by “and”; a condition that tells them apart may be missing. Equal entries are not always repeated.

How the values were obtained:
[1] = target: AP2 core; test: BLI of AP2 core binding to immobilized GST-FCHO linkers; conditions: BLI equilibrium analysis, GST-linker on anti-GST biosensors, 25°C, near-physiological conditions, AP2 core closed
Protocol: Real-time kinetic measurements of AP2 core binding to immobilized GST-FCHO1 linker and GST-FCHO2 linker at 25°C were conducted using an Octet RED96 (Pall FortéBio). AP2 concentrations varied by twofold dilution series (13.5 to 0.8 and 10.0 to 0.2 μM, respectively). Samples and buffers were dispensed into 96-well microtiter plates (Greiner) at a volume of 200 μl per well. Anti-GST biosensors (Pall FortéBio) were incubated in the specific assay buffer for at least 30 min before loading with the appropriate GST-FCHO linker for 5 min, followed by blocking with GST-ARRS control for 10 min. Negative controls were analyzed with biosensors uniquely loaded with the GST-ARRS control. Every binding experiment consisted of three steps: incubation for 10 min in the specific assay buffer, followed by 15 min of incubation with AP2 in the same buffer (association phase), and then by 10 min of incubation with the same buffer without AP2 to measure AP2 off rate (dissociation phase). […]
Data were processed with the Octet Data Acquisition 7.0 software, individually fitted using ForteBio Analysis software 7.0, and subsequently further analyzed with the PRISM software (GraphPad) to determine equilibrium dissociation constants (KD). The maximum binding capacity of each biosensor was scaled with respect to each other, according to the molecular weight of the AP2 analyzed.

[2] = system: AP2 core; test: Liposome spin-downs / GSH Sepharose pull-down of AP2 core with GST-FCHO2 linker; format: biochemical; conditions: for increase in steady-state efficiency of AP2 membrane recruitment: GST-FCHO2 vs GST-ARRS control, densitometry, 3 independent experiments
Protocol: GST-FCHO2 WT linker or a nonbinding control (GST-ARRS control) at a final concentration of 30 μM was incubated at 4°C for 30 min with AP2 core at a concentration of 2.5 μM, in 95% HKT buffer with lysozyme (0.2 mg/ml) as a “carrier,” AEBSF (25 μg/ml), and 5 mM DTT. Core buffer (contributed by the purified AP2) was restricted to 5% of the volume. The mixture was then centrifuged briefly to remove any insoluble material. Samples were removed and added to either an equal volume of liposomes [containing phosphatidylcholine (PC)/phosphatidylethanolamine (PE), PC/PE/PS/PtdIns(4,5)P2, or PC/PE/PS/ PtdIns(4,5)P2/TGN38] or an equal bed volume of GSH Sepharose beads prewashed into HKT buffer. Final concentrations were therefore 15 μM (GST-FCHO2/ARRS) and 1.25 μM AP2. The mixtures were incubated for 30 min at 21°C with continuous gentle inversion, then the liposomes were pelleted by centrifugation, supernatants were removed, and the pellets resuspended in an equal volume before the addition of SDS loading dye and analysis by SDS-PAGE. The GSH Sepharose beads were washed three times with 1 ml of HKT supplemented with lysozyme (0.2 mg/ml), AEBSF (25 μg/ml), and 5 mM DTT, then resuspended in the same buffer, and analyzed by SDS-PAGE. All experiments were done in triplicate.

Row | Kd [1] | Molecule | ratio of FCHO2:AP2 on beads relative to PtdIns(4,5)P2-containing liposomes ([2]; GST-FCHO2 linker 15 μM, AP2 core 1.25 μM, three independent experiments) | increase in steady-state efficiency of AP2 membrane recruitment ([2]; PtdIns(4,5)P2-only liposomes) | increase in steady-state efficiency of AP2 membrane recruitment ([2]; liposomes containing both PtdIns(4,5)P2 and cargo)
1 | ~10 µM and 9.8 µM | FCHO2 linker: FCHO2 interdomain linker wt, residues 314 to 444, GST fusion (protein, left off: GST, end not stated, kept, FCHO2 interdomain linker wt, residues 314 to 444, GST fusion) NIPDVDEEGYSIKPETNQNDTKENHFYSSSDSDSEDEEPKKYRIEIKPMHPNNSHHTMASLDELKVSIGNITLSPAISRHSPVQMNRNLSNEELTKSKPSAPPNEKGTSDLLAWDPLFGPSLDSSSSSSLT | ~ 20 fold | ~ 13% | ~ 22%
2 | ~10 µM and 8.5 µM | FCHO1 linker: FCHO1 interdomain linker wt (N123C), residues 316 to 444, GST fusion (protein, left off: GST, end not stated, kept, FCHO1 interdomain linker wt (N123C), residues 316 to 444, GST fusion) TCPEVDEEGFTVRPDVTQNSTAEPSRFSSSDSDFDDEEPRKFYVHIKPAPARAPACSPEAAAAQLRATAGSLILPPGPGGTMKRHSSRDAAGKPQRPRSAPRTSSCAERLQSEEQVSKNLFGPPLESAF |  |  | 
